What was measured:
[1] = target: the molecule itself; assay: SEC-MALS; Superdex 200 Increase 10/30; 20 mM Tris/acetate pH 7.6, 150 mM NaCl, 0.1 mM EDTA, 0.1 mM PMSF, 2 mM DTT; 200–250 μg of HspB8 WT or R29A, or 400 μg of Δ28–32 loaded
[2] = target: the molecule itself; assay: SEC-MALS; Superdex 200 Increase 10/30; buffer D (20 mM Tris/acetate pH 7.6, 150 mM NaCl, 0.1 mM EDTA, 0.1 mM PMSF) without any reducing agents; 200–250 μg of oxidized HspB8Cys loaded

B1: HspB8 R29A mutant (natural protein, human, UniProt Q9UJY1 1-196, looked up)
chain: MADGQMPFSCHYPSRLRRDPFRDSPLSSALLDDGFGMDPFPDDLTASWPDWALPRLSSAWPGTLRSGMVPRGPTATARFGVPAEGRTPPPFPGEPWKVCVNVHSFKPEELMVKTKDGYVEVSGKHEEKQQEGGIVSKNFTKKIQLPAEVDPVTVFASLSPEGLLIIEAPQVPPYSTFGESSFNNELPQDSQEVTCT
notes: human HspB8 (Hsp22), Uniprot Q9UJY1, carrying the R29A mutation; calculated Mw of monomer 21.5 kDa; No tag is named
binding result [1]: binds

B2: oxidized Cys mutant of HspB8 (C10S/C99S/C195S/N138C) (natural protein, human, UniProt Q9UJY1 1-196, looked up)
chain: MADGQMPFSSHYPSRLRRDPFRDSPLSSRLLDDGFGMDPFPDDLTASWPDWALPRLSSAWPGTLRSGMVPRGPTATARFGVPAEGRTPPPFPGEPWKVSVNVHSFKPEELMVKTKDGYVEVSGKHEEKQQEGGIVSKCFTKKIQLPAEVDPVTVFASLSPEGLLIIEAPQVPPYSTFGESSFNNELPQDSQEVTST
modifications: engineered disulfide bridge between the Cys138 residues of two chains (oxidized form)
notes: human HspB8 (Hsp22), Uniprot Q9UJY1, with the C10S/C99S/C195S/N138C amino acid substitutions; calculated Mw of monomer 21.5 kDa; The dimer is covalent (S-S crosslinked) after oxidation; No tag is named; also called HspB8Cys; oxidized HspB8Cys; source: oxidized by overnight dialysis
stoichiometry N [2]: 2

B3: HspB8 Δ28–32 mutant (natural protein, human, UniProt Q9UJY1 1-196, looked up)
chain: MADGQMPFSCHYPSRLRRDPFRDSPLSDGFGMDPFPDDLTASWPDWALPRLSSAWPGTLRSGMVPRGPTATARFGVPAEGRTPPPFPGEPWKVCVNVHSFKPEELMVKTKDGYVEVSGKHEEKQQEGGIVSKNFTKKIQLPAEVDPVTVFASLSPEGLLIIEAPQVPPYSTFGESSFNNELPQDSQEVTCT
notes: human HspB8 (Hsp22), Uniprot Q9UJY1, with the pentapeptide 28SRLLD32 deleted; calculated Mw of monomer 21.0 kDa; Made by PCR from the HspB8 WT cDNA and ligated into pET23 via NdeI and XhoI; No tag is named; also called Δ mutant; deletion mutant of HspB8
stoichiometry N [1]: 2

— article PMC8213154, “Replacement of Arg in the conserved N-terminal RLFDQxFG motif affects physico-chemical properties and chaperone-like activity of human small heat shock protein HspB8 (Hsp22)” (PLoS ONE, 2021)
